Results as given in the supplement of paper PMC12764529.
± gives the half width of the 95% confidence interval.

Assay: folding stability dG unfold from trypsin proteolysis; higher = more stable
How it was run: (§1)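 Sequencing followed digestion of designed mini-proteins with trypsin and chymotrypsin, each at 11 concentrations in threefold dilutions together with a no-protease condition. The mini-proteins were under 80 residues, had no cysteine, sat in a PA-tagged cDNA display construct, and were kept only if AlphaFold2 dimer inter-PAE was above 15. From the counts, Bayesian fitting gave K50, and unfolding free energy was derived against a sequence-predicted unfolded-state K50 and a shared folded-state K50, per protease or combined.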

Point of comparison: “MVLKVTIEITVTHPANPGKTEKLTIVVEAPTLEEALAAALEEIRRRLGLPPGAKVTVKVTVELVELPEEDLS [r1_149_TrROS_Hall]”, “folding stability dG unfold” value 4.5 ± 0.18 kcal/mol. Against it:
- SAGGSAGGSAGKLRYRYRFDTVLLEVTYDPSTGEVVEVKVIPLSPLPPLTPEELYRLLEDSAGGSAGGSAGG [r11_320_TrMRF] — lower, 2.25 ± 0.053 kcal/mol
- SAGGSAKPEPIKIEIGPGGNRFKATFPNGDEADVDVVKDGDKTYLLITVTSPDGKPRPFKIPLEKLSAGGSA [r15_941_TrMRF] — lower, 1.76 ± 0.042 kcal/mol
- SAGGSAEWKEKALKMGAKEVKEDPANGYLYVTFPGPGRTIVIWKKEEDGTVTKVKTVSPSVKVEYKSAGGSA [r15_247_JUSTAS] — lower, -0.292 ± 0.41 kcal/mol
- SAGGSAGGSKSYEIKEITFDPENNTITIVLVAPDGKIVRTETFKPGEEVVFTFENGEKVTVKASAGGSAGGS [r12_441_TrMRF] — lower, 1.99 ± 0.059 kcal/mol
- SAGGSAPEIPTDALVRVRDPNSDKWYEATVLEARKLPGGELVYLIRLTKDGNEELVPTDLATVELKSAGGSA [r15_62_JUSTAS] — lower, 1.05 ± 0.08 kcal/mol
- SAGGSAGGSANWKEIDGTLPWGLRVKVWVSPGNGQLMIEIKPVPPPPPPKISPEDADKANADSAGGSAGGSA [r18_236_TrROS] — lower, 2.31 ± 0.072 kcal/mol
- SAGGSAGGSAGLELTVGDVPVDVYVDPDTERALAYFPLFNRVAIVDLPTGKVYVVPLDDILSAGGSAGGSAG [r3_137_TrMRF] — lower, 1.25 ± 0.04 kcal/mol
- SAGGSAGGSMETRTFDSEEELRASVSVPSSLSVTFERRPGRWEVRIEPPLSPEEIAAQRARLLSAGGSAGGS [r12_274_JUSTAS] — lower, -0.346 ± 0.17 kcal/mol
- SAGGSAGRVRVELELEIVVDTPEEARALAEELARRFPSIVRVEVEVRRRPDGRLVVRVRLEVELPPSAGGSA [r15_726_TrROS_Hall] — lower, 3.3 ± 0.061 kcal/mol
- SAGGSAVTVVTVELTSPGSTHTITIPASEVEGLSLEEIEARLKALPEVSEITLTRSELPPLNPSLASAGGSA [r2_282_JUSTAS] — lower, 0.788 ± 0.042 kcal/mol
- SAGGSAGGSAGGMRIRLENGEVIKIKNAKTKEELLNALKAIPGLKIEYDEETKELWIYRSAGGSAGGSAGGS [r10_792_TrROS_Hall] — lower, 1.88 ± 0.075 kcal/mol
- SAGMISPEEIAKRLKAGEPVEIYLPDPAEKEALLAELQKLLGLSEEELKEIFAKMKFTEIPATDPRLLASAG [r5_368_JUSTAS] — lower, 1.16 ± 0.045 kcal/mol
- SAGGSAGSKPVTINWKITHPDGTPTTIPFSFPTEEQALEEALKAAEALAKEAGYPDFKIEIDEIIPSAGGSA [r15_698_TrMRF] — lower, 0.0851 ± 0.091 kcal/mol
- SETYKVTVLAEVRIYSRSPDGTWKPIGVFPVEATVEYPAEYREEAERKAVEKVEEEVRKFAESHGVVVEASA [r9_356_TrMRF] — lower, 1.57 ± 0.043 kcal/mol
- SASISVASPEEAEKIAKELKEKYGAKSVKIEPLPEPLVKVTIEFEVPLENGKTATRKIVLLFSSDGKEESAG [r14_420_TrMRF] — lower, 1.87 ± 0.044 kcal/mol
- SAGGKEYRNPENGQKIPPGDTEEEREKHAREHAKPVIVPIEIPIVIKFGDVIFPIPITFEIPLTPGGSAGGS [r16_387_TrROS] — lower, 0.0408 ± 0.054 kcal/mol
- SAGGMTIELTIVAETEEEAEKAAEELARKLAELYPDLKVKVTVEKVEVKDEETGKTYLVYKVRIEIEPSAGG [r13_545_TrROS_Hall] — within error, 4.47 ± 0.19 kcal/mol
- SMKVERERRTIERTLPDGRKVKVEIDLFRPEDGKPWALIKITVTDENGVPTEREILAPAELAEKVIEELFSA [r9_189_TrMRF] — lower, 2.34 ± 0.055 kcal/mol
- SAGGSAGGSAGGMKVTTINLPDGTTIEYYPETGSVTIHPSDGSVSTRPDLTLEDVLAALSAGGSAGGSAGGS [r10_569_JUSTAS] — lower, 2.38 ± 0.066 kcal/mol
- SAGGPKPILILPKNGKTETIPVPESMTLEEIIEIVKKAAEKYGFEKISYDPEKKVVTVYLKGKVIVTGSAGG [r13_572_TrMRF] — lower, 1.25 ± 0.015 kcal/mol
- SAGGSAGGSAKVKIVIKNENGEEFEIEMSEEELKKKLKPGDKVKIKIEKVNGKLKITIEKESAGGSAGGSAG [r3_86_TrROS_Hall] — lower, 1.17 ± 0.12 kcal/mol
- SAGGSAGGVISEEEIEAKAEEAKAEAIAAGLESKEVTITSPSGKVYKITVDVNSITIEKSPAAGSAGGSAGG [r6_270_JUSTAS] — lower, 0.879 ± 0.088 kcal/mol
- SALKGLKITEIKEVTNEDGSKSLVVRVDGYLLVFDLDTKKLTLVPLPPVTVTVTVYEKKADPNKPEYKKKSA [r9_1065_TrROS_Hall] — lower, 1.71 ± 0.042 kcal/mol
- SAGGSAGGSMKTKTIEIEIDGKKVRITIDSDGNITIEVPSEEVKEALKKLLPPGVKITKIEPVSAGGSAGGS [r12_9_TrROS_Hall] — lower, 2.15 ± 0.13 kcal/mol
- SAMTKEEAKENGHIYIMVKIEVTWPNGGKREFPIFFPFPSLDEAKEQIRSFFRRMNFKVKIDDISIFPVSAG [r14_854_TrROS] — lower, 2.98 ± 0.048 kcal/mol
- SEETLRILIRDPATGELREIEVRAGETVTVTFPDGSTVTLRITVVAAPPPPPKTVTLDPNETVEEGETVLSA [r9_467_TrROS_Hall] — lower, 2.24 ± 0.084 kcal/mol
- MPDISRAEIKALAEKLGLPVPDGTITIKFTYGDKTITVPVDAKKDITLGDIVEAIKKKNPNIKKIEIVAEPS [r1_135_TrMRF] — lower, 0.956 ± 0.044 kcal/mol
- SASKGSSMITVELTVTVPPSVSIEEVKKQFEEEFPKDAEIKVEATPVTVPANGTPVTTIKVTVTITKKESAG [r14_633_JUSTAS] — lower, 1.27 ± 0.1 kcal/mol
- SWKIKISIERTGDWITVKIWYDNPSELRNAIEMIAEKLGMKVEIDDVSWKRDPNGWYEATITVRIKPGMPSA [r9_102_TrROS] — lower, 3.27 ± 0.18 kcal/mol
- SAGGGTTITLSFADGTTKTLTLPGLTEVVEEPGRVVVRADVPERRVVVTFEPATGTITVEEFAPEEPVSAGG [r13_392_JUSTAS] — lower, 0.818 ± 0.1 kcal/mol
- SAGGSTVSVVPFPDYLLVVTTDVRRTPVPDTDTVSTELTTTVTVIPLPDVPPPVLPFLDADGNPYYASAGGS [r8_46_TrMRF] — lower, 1.01 ± 0.093 kcal/mol
- SAMIEIEIEVEEREDGRLIVRVRIRNKETGEEIELELEMSREEVEKLLEELKKLFPNLEIVEVEIRELPSAG [r14_969_TrROS_Hall] — lower, 4 ± 0.15 kcal/mol
- SSDIKIEIDIERNDDGYLTFTIEIRHPDPQQLVDAAKEIILELFPPGVNIDVEPHPDGWVKAPIMFPLPKSA [r9_646_TrROS] — lower, 0.735 ± 0.13 kcal/mol
- SAGGSAGGSAGMPKVEAVDISYSADPNSKSYTITIKSPDGEPIVLTLNSPSEIENLELVLSAGGSAGGSAGG [r11_711_JUSTAS] — lower, 1.19 ± 0.026 kcal/mol
- SAGGEVKYEHEGKNPDNGNMYKQEQEVPPVPIPPVIVIPAEDLDEFRELGIPENFKILPGNGWIVITSAGGS [r16_194_TrROS] — lower, 0.44 ± 0.091 kcal/mol
- SAGGSAGGSALKPGEPITIIFLFKEPNGRPYIMVIEIEVNPDGGIKIKGMEMITLEDLDKISAGGSAGGSAG [r3_212_TrROS] — lower, 2.97 ± 0.21 kcal/mol
- SAGGSALDPDDLEKVTIEFMFYNPNGNLLYEMTLEIYPDDGVIKMEHKQRRPGEPQKVTMEFPFDPSAGGSA [r15_278_TrROS] — lower, 1.63 ± 0.29 kcal/mol
- SAGGSAGGSKKVKVTIEYDKETGVVKVTVEDPETGEKYTVTAKFEFDKNGKLVKVEVVSIEKESAGGSAGGS [r12_791_TrROS_Hall] — lower, 2.71 ± 0.14 kcal/mol
- SAGGSAGGRLEPITEEEALELARLLAEYIRRLFPGDPRPHLVVVPILVPTPEDGYRLFLAVIAESAGGSAGG [r6_844_TrMRF] — lower, 2.74 ± 0.079 kcal/mol
- SAGSSMSVTIKVTIRSPTRTEEIEITVSPSESLEEAIKKVAEKLPPDYSITITFEGGETVTIPIPKELLSAG [r5_77_JUSTAS] — lower, 1.93 ± 0.1 kcal/mol
- SAGGSAGGSAGMELTVKVPPDTTPEEVKEKIEKELGLKVKSISVSSFPDGTRTVTITIGPSAGGSAGGSAGG [r17_222_JUSTAS] — lower, 2.45 ± 0.27 kcal/mol

Assay: folding stability dG unfold from chymotrypsin proteolysis; higher = more stable
How it was run: as §1

Point of comparison: “SAGGSAGGSAGGMKVTTINLPDGTTIEYYPETGSVTIHPSDGSVSTRPDLTLEDVLAALSAGGSAGGSAGGS [r10_569_JUSTAS]”, “folding stability dG unfold” value 1.81 ± 0.031 kcal/mol. Against it:
- SAGGSAGGSAGKLRYRYRFDTVLLEVTYDPSTGEVVEVKVIPLSPLPPLTPEELYRLLEDSAGGSAGGSAGG [r11_320_TrMRF] — higher, 3.071 ± 0.018 kcal/mol
- SAGGSAKPEPIKIEIGPGGNRFKATFPNGDEADVDVVKDGDKTYLLITVTSPDGKPRPFKIPLEKLSAGGSA [r15_941_TrMRF] — higher, 2.24 ± 0.023 kcal/mol
- SAGGSAEWKEKALKMGAKEVKEDPANGYLYVTFPGPGRTIVIWKKEEDGTVTKVKTVSPSVKVEYKSAGGSA [r15_247_JUSTAS] — lower, 0.817 ± 0.27 kcal/mol
- SAGGSAGGSKSYEIKEITFDPENNTITIVLVAPDGKIVRTETFKPGEEVVFTFENGEKVTVKASAGGSAGGS [r12_441_TrMRF] — higher, 2.828 ± 0.008 kcal/mol
- SAGGSAPEIPTDALVRVRDPNSDKWYEATVLEARKLPGGELVYLIRLTKDGNEELVPTDLATVELKSAGGSA [r15_62_JUSTAS] — lower, 1.53 ± 0.12 kcal/mol
- SAGGSAGGSANWKEIDGTLPWGLRVKVWVSPGNGQLMIEIKPVPPPPPPKISPEDADKANADSAGGSAGGSA [r18_236_TrROS] — higher, 4.06 ± 0.13 kcal/mol
- SAGGSAGGSAGLELTVGDVPVDVYVDPDTERALAYFPLFNRVAIVDLPTGKVYVVPLDDILSAGGSAGGSAG [r3_137_TrMRF] — lower, 1.11 ± 0.14 kcal/mol
- SAGGSAGGSMETRTFDSEEELRASVSVPSSLSVTFERRPGRWEVRIEPPLSPEEIAAQRARLLSAGGSAGGS [r12_274_JUSTAS] — lower, -1.07 ± 0.6 kcal/mol
- SAGGSAGRVRVELELEIVVDTPEEARALAEELARRFPSIVRVEVEVRRRPDGRLVVRVRLEVELPPSAGGSA [r15_726_TrROS_Hall] — higher, 3.32 ± 0.077 kcal/mol
- SAGGSAVTVVTVELTSPGSTHTITIPASEVEGLSLEEIEARLKALPEVSEITLTRSELPPLNPSLASAGGSA [r2_282_JUSTAS] — lower, 0.752 ± 0.012 kcal/mol
- SAGGSAGGSAGGMRIRLENGEVIKIKNAKTKEELLNALKAIPGLKIEYDEETKELWIYRSAGGSAGGSAGGS [r10_792_TrROS_Hall] — higher, 2.33 ± 0.097 kcal/mol
- SAGMISPEEIAKRLKAGEPVEIYLPDPAEKEALLAELQKLLGLSEEELKEIFAKMKFTEIPATDPRLLASAG [r5_368_JUSTAS] — higher, 2.03 ± 0.058 kcal/mol
- MVLKVTIEITVTHPANPGKTEKLTIVVEAPTLEEALAAALEEIRRRLGLPPGAKVTVKVTVELVELPEEDLS [r1_149_TrROS_Hall] — higher, 5.63 ± 0.18 kcal/mol
- SAGGSAGSKPVTINWKITHPDGTPTTIPFSFPTEEQALEEALKAAEALAKEAGYPDFKIEIDEIIPSAGGSA [r15_698_TrMRF] — lower, 0.47 ± 0.12 kcal/mol
- SETYKVTVLAEVRIYSRSPDGTWKPIGVFPVEATVEYPAEYREEAERKAVEKVEEEVRKFAESHGVVVEASA [r9_356_TrMRF] — higher, 2.31 ± 0.13 kcal/mol
- SASISVASPEEAEKIAKELKEKYGAKSVKIEPLPEPLVKVTIEFEVPLENGKTATRKIVLLFSSDGKEESAG [r14_420_TrMRF] — higher, 2.715 ± 0.016 kcal/mol
- SAGGKEYRNPENGQKIPPGDTEEEREKHAREHAKPVIVPIEIPIVIKFGDVIFPIPITFEIPLTPGGSAGGS [r16_387_TrROS] — lower, -0.0327 ± 0.28 kcal/mol
- SAGGMTIELTIVAETEEEAEKAAEELARKLAELYPDLKVKVTVEKVEVKDEETGKTYLVYKVRIEIEPSAGG [r13_545_TrROS_Hall] — higher, 4.96 ± 0.11 kcal/mol
- SMKVERERRTIERTLPDGRKVKVEIDLFRPEDGKPWALIKITVTDENGVPTEREILAPAELAEKVIEELFSA [r9_189_TrMRF] — within error, 1.78 ± 0.039 kcal/mol
- SAGGPKPILILPKNGKTETIPVPESMTLEEIIEIVKKAAEKYGFEKISYDPEKKVVTVYLKGKVIVTGSAGG [r13_572_TrMRF] — higher, 2.625 ± 0.017 kcal/mol
